These results are taken from US20250283117, “RNA-GUIDED NUCLEASES AND ACTIVE FRAGMENTS AND VARIANTS THEREOF AND METHODS OF USE” (Life Edit Therapeutics, Inc., published 2025).

In the first data set the test system is T1, APG08290.1 (Bacillus sp.).
T1 sequence: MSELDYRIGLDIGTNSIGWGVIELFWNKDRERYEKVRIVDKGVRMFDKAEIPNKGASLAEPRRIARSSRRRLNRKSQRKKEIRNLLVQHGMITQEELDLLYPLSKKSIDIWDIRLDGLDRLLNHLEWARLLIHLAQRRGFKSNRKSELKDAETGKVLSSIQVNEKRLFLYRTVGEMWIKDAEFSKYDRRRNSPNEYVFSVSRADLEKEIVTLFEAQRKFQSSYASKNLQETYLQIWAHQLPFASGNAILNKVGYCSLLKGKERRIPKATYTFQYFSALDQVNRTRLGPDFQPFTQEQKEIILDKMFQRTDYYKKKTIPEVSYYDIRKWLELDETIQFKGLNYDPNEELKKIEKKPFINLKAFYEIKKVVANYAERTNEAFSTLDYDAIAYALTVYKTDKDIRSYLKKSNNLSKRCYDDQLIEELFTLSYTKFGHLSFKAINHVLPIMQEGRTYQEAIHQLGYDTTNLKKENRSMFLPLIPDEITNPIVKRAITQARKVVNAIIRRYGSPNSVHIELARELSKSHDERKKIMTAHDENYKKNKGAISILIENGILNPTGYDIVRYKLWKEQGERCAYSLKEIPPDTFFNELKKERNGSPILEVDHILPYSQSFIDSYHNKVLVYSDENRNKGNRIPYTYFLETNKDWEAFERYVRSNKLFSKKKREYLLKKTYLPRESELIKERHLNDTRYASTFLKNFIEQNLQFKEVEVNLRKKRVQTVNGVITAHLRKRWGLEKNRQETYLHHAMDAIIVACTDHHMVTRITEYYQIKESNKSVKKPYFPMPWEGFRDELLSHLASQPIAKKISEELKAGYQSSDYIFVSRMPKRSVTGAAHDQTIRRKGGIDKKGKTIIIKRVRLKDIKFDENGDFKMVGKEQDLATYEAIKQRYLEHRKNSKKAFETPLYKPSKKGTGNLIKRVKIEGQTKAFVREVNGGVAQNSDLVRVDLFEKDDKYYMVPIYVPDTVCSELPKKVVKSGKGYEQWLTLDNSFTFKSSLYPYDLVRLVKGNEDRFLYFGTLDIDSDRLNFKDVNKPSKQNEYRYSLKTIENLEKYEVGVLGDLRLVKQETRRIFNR
The data set can be described thus: cleavage_in_vitro.
Settings: not given
In turn, “GAGCGGACAGCAGCUUCCUAUAUCUCGUACNNNNNNNNNNNNNNNNNNNNNNNNNGUCAUAGUUCCAUGAAAGCCAAAAGUGGCUUUGAUGUUUCUAUGAUAAGGGUUUCGGCCCGUGGCGUCGGGGAUCGCCUGCCCAUUCCGAUGGGCUUCUCCCCAUUUAUU / GAGCGGACAGCAGCTTCCTATATCTCGTTC / GAACGAGATATAGGAAGCTGCTGTCCGCTC [Sequence 1 sgRNA for APG08290.1 ; target mismatch 2]” gave an activity of 0 % cleaved.

Sequence “GAGCGGACAGCAGCUUCCUAUAUCUCGUACNNNNNNNNNNNNNNNNNNNNNNNNNGUCAUAGUUCCAUGAAAGCCAAAAGUGGCUUUGAUGUUUCUAUGAUAAGGGUUUCGGCCCGUGGCGUCGGGGAUCGCCUGCCCAUUCCGAUGGGCUUCUCCCCAUUUAUU / GAGCGGACAGCAGCTTCCTATATCTGGTAC / GTACCAGATATAGGAAGCTGCTGTCCGCTC [Sequence 1 sgRNA for APG08290.1 ; target mismatch 5]” came in with an activity of 0 % cleaved. Same read-out and setting: under “GAGCGGACAGCAGCUUCCUAUAUCUCGUACNNNNNNNNNNNNNNNNNNNNNNNNNGUCAUAGUUCCAUGAAAGCCAAAAGUGGCUUUGAUGUUUCUAUGAUAAGGGUUUCGGCCCGUGGCGUCGGGGAUCGCCUGCCCAUUCCGAUGGGCUUCUCCCCAUUUAUU / GAGCGGACAGCAGCTTCGTATATCTCGTAC / GTACGAGATATACGAAGCTGCTGTCCGCTC [Sequence 1 sgRNA for APG08290.1 ; target mismatch 13]” stands 28 % cleaved; under “GAGCGGACAGCAGCUUCCUAUAUCUCGUACNNNNNNNNNNNNNNNNNNNNNNNNNGUCAUAGUUCCAUGAAAGCCAAAAGUGGCUUUGAUGUUUCUAUGAUAAGGGUUUCGGCCCGUGGCGUCGGGGAUCGCCUGCCCAUUCCGAUGGGCUUCUCCCCAUUUAUU / GAGCGGACTGCAGCTTCCTATATCTCGTAC / GTACGAGATATAGGAAGCTGCAGTCCGCTC [Sequence 1 sgRNA for APG08290.1 ; target mismatch 22]”, 100 % cleaved.

In a further data set the test system is T2, APG05459.1 (Enterococcus sp.).
T2 sequence: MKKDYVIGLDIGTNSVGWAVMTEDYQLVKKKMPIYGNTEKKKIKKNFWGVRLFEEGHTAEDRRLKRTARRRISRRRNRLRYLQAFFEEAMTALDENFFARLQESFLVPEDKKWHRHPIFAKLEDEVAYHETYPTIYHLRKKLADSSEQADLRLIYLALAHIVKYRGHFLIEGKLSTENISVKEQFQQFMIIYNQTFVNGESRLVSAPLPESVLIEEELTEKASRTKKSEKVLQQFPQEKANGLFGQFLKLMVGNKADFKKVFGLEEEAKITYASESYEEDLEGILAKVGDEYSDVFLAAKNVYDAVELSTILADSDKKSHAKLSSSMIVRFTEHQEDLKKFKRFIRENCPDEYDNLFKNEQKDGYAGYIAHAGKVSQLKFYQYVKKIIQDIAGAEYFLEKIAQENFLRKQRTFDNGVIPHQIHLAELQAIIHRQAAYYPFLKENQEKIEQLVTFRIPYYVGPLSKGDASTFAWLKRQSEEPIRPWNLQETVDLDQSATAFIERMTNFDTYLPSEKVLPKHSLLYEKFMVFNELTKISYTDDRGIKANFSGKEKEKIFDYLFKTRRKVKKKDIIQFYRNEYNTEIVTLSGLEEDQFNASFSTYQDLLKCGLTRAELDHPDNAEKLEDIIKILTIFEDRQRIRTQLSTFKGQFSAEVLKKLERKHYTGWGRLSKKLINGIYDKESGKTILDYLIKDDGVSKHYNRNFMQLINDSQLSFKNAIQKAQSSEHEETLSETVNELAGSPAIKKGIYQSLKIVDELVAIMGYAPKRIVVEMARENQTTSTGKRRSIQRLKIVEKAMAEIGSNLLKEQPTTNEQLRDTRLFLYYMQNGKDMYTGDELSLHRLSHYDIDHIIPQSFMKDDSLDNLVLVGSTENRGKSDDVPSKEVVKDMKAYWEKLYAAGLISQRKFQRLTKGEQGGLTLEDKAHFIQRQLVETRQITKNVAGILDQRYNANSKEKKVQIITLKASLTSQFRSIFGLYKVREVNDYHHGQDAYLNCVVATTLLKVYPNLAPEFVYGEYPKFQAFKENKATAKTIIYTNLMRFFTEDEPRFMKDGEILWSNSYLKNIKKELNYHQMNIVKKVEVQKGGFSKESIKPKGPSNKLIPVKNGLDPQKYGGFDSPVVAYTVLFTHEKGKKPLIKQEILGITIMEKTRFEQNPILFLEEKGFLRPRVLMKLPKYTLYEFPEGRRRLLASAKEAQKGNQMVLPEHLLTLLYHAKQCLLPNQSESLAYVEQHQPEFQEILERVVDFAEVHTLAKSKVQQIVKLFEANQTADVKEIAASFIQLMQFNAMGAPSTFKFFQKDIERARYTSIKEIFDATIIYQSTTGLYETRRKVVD
The data set is described as follows: cleavage_in_vitro.
Settings: not given
The sequence “GAGCGGACAGCAGCUUCCUAUAUCUCGUACNNNNNNNNNNNNNNNNNNNNNNNNNGUUUUAGAGUCAUGUUAAAGAACAUAGCAAGUUAAAAUAAGGUUUUAACCGUAAUCAACUGUAAAGUGGCGCUGUUUCGGCGCUUUUUUUGUUU / CAGCGGACAGCAGCTTCCTATATCTCGTAC / GTACGAGATATAGGAAGCTGCTGTCCGCTG [Sequence 1 sgRNA for APG05459.1 ; target mismatch 30]” registered an activity of 57 % cleaved. “GAGCGGACAGCAGCUUCCUAUAUCUCGUACNNNNNNNNNNNNNNNNNNNNNNNNNGUUUUAGAGUCAUGUUAAAGAACAUAGCAAGUUAAAAUAAGGUUUUAACCGUAAUCAACUGUAAAGUGGCGCUGUUUCGGCGCUUUUUUUGUUU / GAGCGGACAGCACCTTCCTATATCTCGTAC / GTACGAGATATAGGAAGGTGCTGTCCGCTC [Sequence 1 sgRNA for APG05459.1 ; target mismatch 18]” had an activity of 0 % cleaved. Take “GAGCGGACAGCAGCUUCCUAUAUCUCGUACNNNNNNNNNNNNNNNNNNNNNNNNNGUUUUAGAGUCAUGUUAAAGAACAUAGCAAGUUAAAAUAAGGUUUUAACCGUAAUCAACUGUAAAGUGGCGCUGUUUCGGCGCUUUUUUUGUUU / GAGCGGACAGCAGCTTCCTAAATCTCGTAC / GTACGAGATTTAGGAAGCTGCTGTCCGCTC [Sequence 1 sgRNA for APG05459.1 ; target mismatch 10]”: the activity came out at 52 % cleaved. Same read-out and setting: under “GAGCGGACAGCAGCUUCCUAUAUCUCGUACNNNNNNNNNNNNNNNNNNNNNNNNNGUUUUAGAGUCAUGUUAAAGAACAUAGCAAGUUAAAAUAAGGUUUUAACCGUAAUCAACUGUAAAGUGGCGCUGUUUCGGCGCUUUUUUUGUUU / GAGCGGACAGCAGCTTCCTATAACTCGTAC / GTACGAGTTATAGGAAGCTGCTGTCCGCTC [Sequence 1 sgRNA for APG05459.1 ; target mismatch 8]” stands 51 % cleaved. On the same count and under the same terms, under “GAGCGGACAGCAGCUUCCUAUAUCUCGUACNNNNNNNNNNNNNNNNNNNNNNNNNGUUUUAGAGUCAUGUUAAAGAACAUAGCAAGUUAAAAUAAGGUUUUAACCGUAAUCAACUGUAAAGUGGCGCUGUUUCGGCGCUUUUUUUGUUU / GAGCGGACAGCAGCTTCCTATATCTCGAAC / GTTCGAGATATAGGAAGCTGCTGTCCGCTC [Sequence 1 sgRNA for APG05459.1 ; target mismatch 3]” stands 3 % cleaved; under “GAGCGGACAGCAGCUUCCUAUAUCUCGUACNNNNNNNNNNNNNNNNNNNNNNNNNGUUUUAGAGUCAUGUUAAAGAACAUAGCAAGUUAAAAUAAGGUUUUAACCGUAAUCAACUGUAAAGUGGCGCUGUUUCGGCGCUUUUUUUGUUU / GAGCGGACAGCAGCTTCCTATATCTCGTAG / CTACGAGATATAGGAAGCTGCTGTCCGCTC [Sequence 1 sgRNA for APG05459.1 ; target mismatch 1]”, 0 % cleaved; under “GAGCGGACAGCAGCUUCCUAUAUCUCGUACNNNNNNNNNNNNNNNNNNNNNNNNNGUUUUAGAGUCAUGUUAAAGAACAUAGCAAGUUAAAAUAAGGUUUUAACCGUAAUCAACUGUAAAGUGGCGCUGUUUCGGCGCUUUUUUUGUUU / GAGCGGACAGCAGCTTCCTATATCTCGTTC / GAACGAGATATAGGAAGCTGCTGTCCGCTC [Sequence 1 sgRNA for APG05459.1 ; target mismatch 2]”, 74 % cleaved. Consider “GAGCGGACAGCAGCUUCCUAUAUCUCGUACNNNNNNNNNNNNNNNNNNNNNNNNNGUUUUAGAGUCAUGUUAAAGAACAUAGCAAGUUAAAAUAAGGUUUUAACCGUAAUCAACUGUAAAGUGGCGCUGUUUCGGCGCUUUUUUUGUUU / GAGCGGACAGCAGCTTCCTATATCTGGTAC / GTACCAGATATAGGAAGCTGCTGTCCGCTC [Sequence 1 sgRNA for APG05459.1 ; target mismatch 5]”, for which the activity is 0 % cleaved.

The same data set, now with this note: PAM SEQ 41; blunt cut 3 from PAM (Table 3).
“GAGCGGACAGCAGCUUCCUAUAUCUCGUACNNNNNNNNNNNNNNNNNNNNNNNNNGUUUUAGAGUCAUGUUAAAGAACAUAGCAAGUUAAAAUAAGGUUUUAACCGUAAUCAACUGUAAAGUGGCGCUGUUUCGGCGCUUUUUUUGUUU / GAGCGGACAGCAGCTTCCTATATCTCGTAC / GTACGAGATATAGGAAGCTGCTGTCCGCTC [Sequence 1 sgRNA for APG05459.1 ; Sequence 1 target]”: the activity is 67 % cleaved.

The same data set, now with this note: incompatible PAM.
As for “GAGCGGACAGCAGCUUCCUAUAUCUCGUACNNNNNNNNNNNNNNNNNNNNNNNNNGUUUUAGAGUCAUGUUAAAGAACAUAGCAAGUUAAAAUAAGGUUUUAACCGUAAUCAACUGUAAAGUGGCGCUGUUUCGGCGCUUUUUUUGUUU / GAGCGGACAGCAGCTTCCTATATCTCGTAC / GTACGAGATATAGGAAGCTGCTGTCCGCTC”, the activity worked out at 0 % cleaved.
